Assay results: the supplement of paper PMC11246515
± gives the standard deviation of the averaged measurements.

Assay: total protein half-life in vivo (active degradation + dilution); higher = more stable protein
[1] = E. coli NCM3722 delta-clpP delta-lon delta-hslV, growth: N-lim chemostat, doubling time 6 h
[2] = E. coli NCM3722 delta-clpP, growth: N-lim chemostat, doubling time 6 h
[3] = E. coli NCM3722 delta-hslV, growth: N-lim chemostat, doubling time 6 h
[4] = E. coli NCM3722 delta-lon, growth: N-lim chemostat, doubling time 6 h
[5] = E. coli NCM3722 delta-smpB, growth: N-lim chemostat, doubling time 6 h
[6] = wild type E. coli NCM3722, growth: C-lim chemostat, doubling time 3 h
[7] = wild type E. coli NCM3722, growth: C-lim chemostat, doubling time 6 h
[8] = wild type E. coli NCM3722, growth: C-lim chemostat, doubling time 12 h
[9] = wild type E. coli NCM3722, growth: N-lim chemostat, doubling time 6 h
[10] = wild type E. coli NCM3722, growth: N-lim chemostat, doubling time 12 h
[11] = wild type E. coli NCM3722, growth: P-lim chemostat, doubling time 6 h
[12] = wild type E. coli NCM3722, growth: P-lim chemostat, doubling time 12 h

Sequence	total protein half-life in vivo [1] [h]	total protein half-life in vivo [2] [h]	total protein half-life in vivo [3] [h]	total protein half-life in vivo [4] [h]	total protein half-life in vivo [5] [h]	total protein half-life in vivo [6] [h]	total protein half-life in vivo [7] [h]	total protein half-life in vivo [8] [h]	total protein half-life in vivo [9] [h]	total protein half-life in vivo [10] [h]	total protein half-life in vivo [11] [h]	total protein half-life in vivo [12] [h]
MINSPRVCIQVQSVYIEAQSSPDNERYVFAYTVTIRNLGRAPVQLLGRYWLITNGNGRETEVQGEGVVGVQPLIAPGEEYQYTSGAIIETPLGTMQGHYEMIDENGVPFSIDIPVFRLAVPTLIH	6.35 ± 0.25	1.66 ± 0.39	0.615	1.4	1.24 ± 0.41	1.4 ± 0.14	2.43	3.11 ± 0.32	1.65	1.98	2.29 ± 0.19	4.37 ± 0.13
MINVLIIDDDAMVAELNRRYVAQIPGFQCCGTASTLEKAKEIIFNSDTPIDLILLDIYMQKENGLDLLPVLHNARCKSDVIVISSAADAATIKDSLHYGVVDYLIKPFQASRFEEALTGWRQKKMALEKHQYYDQAELDQLIHGSSSNEQDPRRLPKGLTPQTLRTLCQWIDAHQDYEFSTDELANEVNISRVSCRKYLIWLVNCHILFTSIHYGVTGRPVYRYRIQAEHYSLLKQYCQ [P0AD01]	5.41 ± 0.33	2.86	4.1 ± 0.41	3.42 ± 0.16	3.1 ± 0.27	1.69 ± 0.17	3.27 ± 0.38	5.01 ± 0.094	3.51 ± 0.13	5.76 ± 0.53	1.58	3.84 ± 0.61
MIQYLNVFFYDIYPYICATVFFLGSWLRYDYGQYTWRASSSQMLDKRGMVIWSNLFHIGILGIFFGHLFGMLTPHWMYAWFLPVAAKQLMAMVLGGICGVLTLIGGAGLLWRRLTNQRVRATSTTPDIIIMSILLIQCLLGLSTIPFSAQYPDGSEMMKLVGWAQSIVTFRGGSSEMLNGVAFVFRLHLVLGMTIFLLFPFTRLVHVWSAPFEYFTRRYQIVRSRR [P0AF32]	6.36 ± 0.3		7.27 ± 0.96	5.71 ± 0.33			6.54	11		10.7 ± 1.9		11.3 ± 1.8
MIRFAVIGTNWITRQFVEAAHESGKYKLTAVYSRSLEQAQHFANDFSVEHLFTSLEAMAESDAIDAVYIASPNSLHFSQTQLFLSHKINVICEKPLASNLAEVDAAIACARENQVVLFEAFKTACLPNFHLLRQALPKVGKLRKVFFNYCQYSSRYQRYLDGENPNTFNPAFSNGSIMDIGFYCLASAVALFGEPKSVQATASLLASGVDAQGVVVMDYGDFSVTLQHSKVSDSVLASEIQGEAGSLVIEKLSECQKVCFVPRGSQMQDLTQPQHINTMLYEAELFATLVDEHLVDHPGLAVSRITAKLLTEIRRQTGVIFPADSVKL	4.844 ± 0.015	4.33 ± 0.36	4.29 ± 0.31	4.616 ± 0.03	4.18 ± 0.54	2.56 ± 0.41	5.28 ± 0.46	9.44 ± 1.5	4.08 ± 0.11	6.53 ± 1.1	6.55 ± 1	10.8 ± 0.27
MIRISDAAQAHFAKLLANQEEGTQIRVFVINPGTPNAECGVSYCPPDAVEATDTALKFDLLTAYVDELSAPYLEDAEIDFVTDQLGSQLTLKAPNAKMRKVADDAPLMERVEYMLQSQINPQLAGHGGRVSLMEITEDGYAILQFGGGCNGCSMVDVTLKEGIEKQLLNEFPELKGVRDLTEHQRGEHSYY	4.529 ± 0.0069	3.82 ± 0.32	2.533 ± 0.019	2.97 ± 0.2	2.54 ± 0.25	2.32 ± 0.16	3.4 ± 0.13	5.07 ± 0.12	2.55 ± 0.36	3.63 ± 0.19	3.01 ± 0.56	6.09 ± 0.23
MIRQVIQRISNPEASIESLQERRFWLQCERAYTWQPIYQTCGRLMAVELLTVVTHPLNPSQRLPPDRYFTEITVSHRMEVVKEQIDLLAQKADFFIEHGLLASVNIDGPTLIALRQQPKILRQIERLPWLRFELVEHIRLPKDSTFASMCEFGPLWLDDFGTGMANFSALSEVRYDYIKIARELFVMLRQSPEGRTLFSQLLHLMNRYCRGVIVEGVETPEEWRDVQNSPAFAAQGWFLSRPAPIETLNTAVLAL						0.512 ± 0.23						
MIRTMLQGKLHRVKVTHADLHYEGSCAIDQDFLDAAGILENEAIDIWNVTNGKRFSTYAIAAERGSRIISVNGAAAHCASVGDIVIIASFVTMPDEEARTWRPNVAYFEGDNEMKRTAKAIPVQVA [P0A790]	4.79		1.54 ± 0.23	6.3	1.43	1.68 ± 0.15	3.1		2.24	2.2	2.12	4.54 ± 0.65
MIRVACVGITVMDRIYYVEGLPTESGKYVARNYTEVGGGPAATAAVAAARLGAQVDFIGRVGDDDTGNSLLAELESWGVNTRYTKRYNQAKSSQSAIMVDTKGERIIINYPSPDLLPDAEWLEEIDFSQWDVVLADVRWHDGAKKAFTLARQAGVMTVLDGDITPQDISELVALSDHAAFSEPGLARLTGVKEMASALKQAQTLTNGHVYVTQGSAGCDWLENGGRQHQPAFKVDVVDTTGAGDVFHGALAVALATSGDLAESVRFASGVAALKCTRPGGRAGIPDCDQTRSFLSLFV	6.62 ± 1.4					2.49 ± 0.19	5.95 ± 1.4	7.92 ± 0.52				
